The text below walks through data of patent US20120315277A1, “Compositions and Methods for the Therapy and Diagnosis of Influenza” (priority 2011, published 2012).

The test concerns the target M2 protein of influenza A/Puerto Rico/8/34 (H1N1) on cells (influenza A virus A/Puerto Rico/8/34 (H1N1)) (UniProt P06821). Briefly: FACS, MDCK cells infected with A/Puerto Rico/8/34.

M2 protein of influenza A/Puerto Rico/8/34 (H1N1) on cells (influenza A virus A/Puerto Rico/8/34 (H1N1)), sequence (P06821 whole entry): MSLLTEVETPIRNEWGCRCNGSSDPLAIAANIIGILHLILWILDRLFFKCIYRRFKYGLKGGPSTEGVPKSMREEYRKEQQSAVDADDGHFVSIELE

Consider “14C2 (chimeric mouse V-region/human IgG1 kappa 14C2 antibody)”, for which the EC50 (read off the curve) – broadly, the concentration needed to bring the measured effect to its halfway point – is 0.3 µg/mL.
